The data set can be described thus: label from the status in PepcDB records.
“MANENVAFENKRQVYHYEPPIQKEEAIPKQYFAGFWIRFLAYLVDLVVIAALKGIIINPIFRVSGMGMDDSFFTFYWGMTTIIFLAYFILLTKFFGQTLGKMLFGLRVVKLDGGKLTWLTVLFREGAMRFVLKTIWPLYVVCAFTPNKQGIADFFESTSVVHTGYLELDEKWVNGAKK”: the protein production result is on record as “failed”.

Regarding “MIKYLIVMLIPFVIVYLLMPKFIEFANEKGFVDKPTGRKKHDKLTPLIGGVVMYIGFFATYLFGIDSTRQLSQTFIIFIASTLVIIIGVIDDYYKGKGKEFPIYPRVIIQILAATMVFKAGIVFRGITNPFTGEFTQFSGWIQYILTITWIFGVTTVINWSDGMDGLAGSISIISAMTMFVVALAKGQFNSAYMSITLVGSILAFLRYNRHPARVFMGDSGANFLGFILAIIALEGAFKQATALSILVPVLALGVPIFDNIFVIFRRFQSGKPVYEADRSQIHYRLQERGMSVKQIVSYICILSGCLSLVSLLIIMIIL”, the protein production entry is listed as “failed”.

As for “SIRTKQSEAKSKGDTLRQLELAALMTHCNMLITHQQLALQAAMKLAYATKNYLYALAFAKRLLELAPNEEMERTAKKVMQFCERNPNNQNQLDYDIEQSNFAIDAGRLKPCIQPPTKSCVYCGACYDESWHSMTCVVCQVAQD”, the protein production entry is “not failed”.

On to “MKFDVIIIGSGLAGLTAGIRLAEAGKSCAIISNGQSALHFSSGSLDLLTHLPDGTPVSHPKQALSTLAQQAPEHPYSRIGEANVTQLIEQAQTLLSTTRNLDYKGNGDENHYRITPVGRSRMSWMSPQRVPTYSVNQPFPWKKIAVVGIEGFLDFQPQFASSTLNEQGIEAIPYHIHLPLLDRLRDNPSEFRAINIARYLDKPENTQALAEELIKHIDNSVEAIVLPACIGLDEEAPVNLLQECVGKPICLLPTLPPSLLGIRLHQALKLRFQQAGGLIMPGDRAEEADLVGNKVVGIHTRNHTDIPIRSEHVVLATGSFFNNGLIAEFDRIYEPLMELDLLESLPRNEWTQVNVFAKQPYMRFGVNTDSQLRPLKYGEALDNVYAVGALLGGFDPLNEGCGAGVSMISALYAAQQILQSDKSQHTTSAAVEAVL”, for which the protein production entry is “not failed”.

As to “MTIAPTTLLLFAATALAELVGCYLPYLWLRKGGSVWLLLPTALSLAVFVWLLSLHPEASGRVYAAYGGVYIASALLWLWWVDGVTPTRWDLLGAACCLLGMAVIMFSPRSA”, the protein production entry is “failed”.

Take “MSEWMKKSPLEWEDYVYKEVRVIACEKEYKGWLLTTDPVSANIVLVNFLEDGRLSVTGIMGHSVQTVETISEGDHRVREKLMHVFASGDCKGYSPEDLEEKRTSLKKWLEKNHIPVTEQGDAQRTLCVAGVLTIDPPYAPENCSSSNEIILSRIQDLIQGHLSASQ”: the protein production result is “failed”.

With “MMTKKDLPLRQLLKLRNSWIAWVVFLVSVVATVLLWQVSIRLVEDRTEARFRTQSLQLKTAIEERLLNYEQVLAGSAGLFAVTGKVTRDQWKEYVDNVDINRYYPGIEGIGYVERIGVREMADHIASVRAEGLYNYLVKPLGTGPYYYPMVYLEPGTERNRKALGYDAFSDPIHRTAMEQARDDAIPTVTGKVVLVQESVAEDQAGFLMYYPVFQGGEIPEIRAERRMMLAGYVFSAFRMNNLIDGIVGLISPFLDVRIYDSGVVARDTLMYGSNLGSLDNEFSFEMSQTIRHGGREWLLQTRSTPAFDYLAADPRPPIVLGSGLAISLLLWLFVLALIRSRLIAQVSAGRYRAITEGAANVTLVMDRRGRPLYASPSSRDILGFDPDKVEALEFEKLVHMDDWSHLQRGFEESMASPGKQMPVVRARVRDADGQWRDMEGTFTAMLSVPGVNGVVLSLRDLTQLKAAQSELHRLAFYDPLTGLANRQLFRDRLNHVVRRSRRSGEAAALMFLDLDGFKRINDTLGHDAGDELLRQVAQWLEGCVREEDSVARLGGDEFVVLLSRISGSEAAGKVAENILRRLCQRIRLNDHEVGVTVSIGITMIPHDSEDAGALMKYADLAMYRAKELGRNTYQFFTPAMNIQAARRLLQQEELATALDGDRFVLHYQPKVDLATQRVIGVEAFLRWHHPEKGLVSAQQFITLAEETGLIIRLGELALRQACIQVQALERAGFESLKMAVNFSVRQLTDSGFLDMIRRVITETGVSPERLELEMPAELLNEDPRMLRELLVSLNDLGVCLILDDFGTGSCSLVALQQLPLDVIKIDHRFIRDIPYNVSATDVASAVIALAHKLHLTVVAEGVETLQQLTFLKSAGCAQCQGNLFSYPLDEDALIGFLIRQYEKPLIS”, the protein production result is recorded as “failed”.

For the sequence “MKTLHTDVAIIGAGTAGLAAYRAARAAGKRALLIEGGQYGTTCARVGCMPSKLLIAAAEAAHAAAHGGPFGVHIDGAVRIDGAQVMARVKSERDRFVGFVLEGVENIPAEDKLRGMARFVEDTVLRVDGHTEVRAGSVVIASGSRPAVPPPFLALGDRLVVNDDVFAWDTLPARVAVFGPGVIGLELGQALARLGVQVRVFGVSGSLGGITDPRVRQSARKAFQQEFYLDPDARVLETKRVGDEVEVRYVALDNTERTERFDYALVATGRRPNVDGLDLHNTSLALDARGVPHFDRHTMQAGQAPVFIAGDANADAPLLHEAADEGRIAGENAARYPDVAPGLRRAALGVVFSDPQIALVGTPFARLESGTFVAGEVDFGDQGRSRVMLRNRGMLRVYADIESGRFVGAEMVGPSAEHIGHLLAWAAQQSLTVAQMLEMPFYHPVVEEGLRTALRDAAARLAQARPQRLAA”, the protein production result was “failed”.

With “MDNMAIADRRRLRRKLTFWRVAAVLLLVVGAFGLYRFFWQGPQQSAKPHIARIEVSGLITDNTELLERLDKIAKSDNVKGLIVSISSPGGTTYGGERIFKVIRSVAEKKPVVSDVRTLAASAGYMIASAGDVIVAGETSITGSIGVIFQYPQLGQLMEKLGVSLQEIKSSPMKAEPSPFHEAPEEAKTMIRAMVMDSYGWFVDLVADRRKLPREEVLKLADGSIFTGRQALANKLVDTLGGEKEVRAYFETRGVAKDLPIVEWRAPSSNSPFALFSVAQIAKLLGYDDLIPFAGPSQLGADKLFLDGLVSVWQVEPRLEHHHHHH”, the protein production result is “not failed”.

For the sequence “MTFSAFFQTIDDYSFRPMIPSFIRLLRFTGLFIAIFAPALYIAMISFHYEVIPLKLLLTIGESRAKIPFPPILEALLMELVLEMLREAAVRLPGPVGQTIGVVGGIVIGQAAVQAGIVSNVMVIVVSITAVASFIIPNLEMSAGIRLLRFPMMIIASLFGVIGIMVGMAIIIIHILSMESLGVPYGSPFSPLFASDLKDILIRLPWKIMKKRPLSLNLKQENRQSDIEGTEEDK”, the protein production entry is recorded as “failed”.

In the case of “MKISAVVVTFNRKKLLLECLNALRNQTYPLDAIFIIDGPSTDGTPEALLECGYIKELPPKKGNWSWETKNVIYSPINNKPIKVYYVRLYKDVGGSGGFYEGVKRAYEEGYNWIWLMDDDAEPREDALEKLIRYMNLPGVIALAPTVIRPTGEISKPHRGILCFKKIFPMIQIPLDESKYKSNQPVQIDFVSFVGPLIKRDAIKIVGFPKKEFFIHHDDVEYSIRLRTVGKIYLIPDSVIIHKENIKKTSLIKKRFLGKTIYRIPYNKLWKTYYGTRNLTYLGRIYSKSKFKFYFKLLKRWAVSVGAIILFDDHKIKRIQFITSAYLDGLRGKFDNEKPKRILYGGKKELEHHHHHH”, the protein production entry is recorded as “not failed”.

On to “SLDLDLQRRVYDIISKAVEGNSAEAGHVIVMESKTGRILSMVTTRNWNDLIGGYIEPGSTIKPLVYAIALETHSASPDFTVECEGSIKPVEQLPVIIRDIEKHGLVDFSAGIVKSCNVMSVKVGELITEKTGVEGFYEWLRKVGFGEKTGIEMEGEIAGVLREPKKWSLIDPAEISIGQGIGVTPVQLIASLNIFANDGYWVKPTILKDSPVKKRRVFSKETTDVIRQAMVRVVEEGTGKLAQVKGIAIAGKTGTAQKAVGGEYRNLYHSLFVGFFPAEDPKYTILVHLDSPSGAFYGGEVAAPVFREIVEILTEKED”, for which the protein production entry is on record as “failed”.

For the sequence “MEEKKDFYDTDELRDFMALVEKTNDIKKIALFRILAFTGIRKGELLALEWKDYRKSTLDINKAISHSPVGYEILPPKANSNRLLSLDEKTCKILDELHQTYPESTRIFESENGGMLSPSKPRKWLLEITKEKEIEPIRIHAFRHTHASLLFESGMSLKQVQYRLGHADLKTTMNIYTHITKLEHHHHHH”, the protein production entry is on record as “not failed”.

For “MKRDVLYNRIILSVFLLSLVSCVAIYYAQQTNQYNTNFLGMQLVFLAIGTLTCFGVSRLPVEFLRHHAIWLYVIMVITLLGILIPNPLVQNINGATRWYRFAGLSFQPSEVVKSIFIFVLAHFAVKYQAQKWKQLGILTVLTGIVLLLIMKQPDLGTTIVYGVTALAIILLAIKSTKLMVGIITLILTAATVGMYVVVYHISLLEKIGFHAYQFSRIQTWLDPTTDPDAVYQLNLSMKAVGSGMMTGSSGTNAYIPESHTDMIFSTIGHQFGFVGVSLLLILFMVLIHQLIMAALLMKNTFSSLVLAGFAVSFAFNIFENIGMTVGLMPLTGIPLPFISYGGSAVLGNFIAVGVVLAIIRSDADLIEEK”, the protein production result was “failed”.

Take “EKAEDCWELQISPELLAHGRQKILDLLNEGSARDLRSLQRIGPKKAQLIVGWRELHGPFSQVEDLERVEGITGKQMESFLKANILGLAAGQ”: the protein production entry is on record as “not failed”.

As to “MAHKKGLGSTRNGRDSQAKRLGVKRYEGQVVRAGNILVRQRGTRFKPGKNVGMGRDFTLFALVDGVVEFQDRGRLGRYVHVRPLA”, the protein production entry was “not failed”.

Turning to “MGHQSSWMKQTVIDSVVQSSKVGVFSMFSMDYKAPRKYSHGRNFGVARQQDFAADIVTRRPYAPYDNGMKKGPNKLSRNLVWTSKEYKSPEGNRPRQNAANGSAKPQVIGTGHRVSNQPRKNAVYGPRSSSLSDTRGCGPRLNGSPKKSVCNFWKDGNCKKGEKCQFLHSWSCFPGLAMVAALEGHKNDIKGIALPQGSDKLFSVSGDGTLLIWDCNSGQCVRSINLQAEAGSLISEGPWVFLGLPNAVKAFNVQNSKDVHLEGVVGQVHAMTAANGMLFAGTSSGSILVWKATDSESDPFKYLTSLEGHHSGEVTCFVVGGEVLYSGSVDKTIKVWDLNTLQCRMTLKQHIGTVTSLLCWDKCLISSSLDGTIKLWACSENESLKVVQTRKQELSVHTLCGMHDAEAKPIMFCSYQNGAVGIFDLPSFEERGKMFSTQTICTLTIGPGGLLFSGDKSGNLRVWSLASGTKV”, the protein production entry is “failed”.

Take “MSSSSSKIVVYAALVGNLLIALSKFIAAYFTNSAAMLSEAIHSVVDSLNEILLLYGLKKSQKPANYRHPFGYGRELYFWAFIVALLVFALGAVVSIYQGVSHILQPEEMKYPLVNYLVLGFAILCEGASWWVAVKNFKKMKGSLGYFEAFKRSKDPTTFTVLFEDSAALIGLIIALIGITAAQFLQIPILDGVASVLIGVVLAVSAFLLARETKGLLLGETADPELRKNVLRIAQDDEAVYSANGVLTEQIGAHQVIASLSLEFKDGLISDEIENCVNRIEAQIKQIHPEIVALFIKPQSNEVWLERMKGRLNQQNGEIVAAKVK”: the protein production result is reported as “failed”.

Turning to “MEPDMTQAFDDDTLRFYRGNATAYAERQPRSATLTKFLGELPAGAKILELGCGAGYQAEAMLAAGFDVDATDGSPELAAEASRRLGRPVRTMLFHQLDAIDAYDAVWAHACLLHVPRDELADVLKLIWRALKPGGLFYASYKSGEGEGRDKLARYYNYPSEEWLRARYAEAGTWASVAVESSEGKGFDQELAQFLHVSVRKPELEHHHHHH”, the protein production entry is recorded as “not failed”.

Regarding “MAQQWSLQRLAGRHPQDSYEDSTQSSIFTYTNSNSTRGPFEGPNYHIAPRWVYHLTSVWMIFVVIASVFTNGLVLAATMKFKKLRHPLNWILVNLAVADLAETVIASTISVVNQVYGYFVLGHPMCVLEGYTVSLCGITGLWSLAIISWERWMVVCKPFGNVRFDAKLAIVGIAFSWIWAAVWTAPPIFGWSRYWPHGLKTSCGPDVFSGSSYPGVQSYMIVLMVTCCITPLSIIVLCYLQVWLAIRAVAKQQKESESTQKAEKEVTRMVVVMVLAFCFCWGPYAFFACFAAANPGYPFHPLMAALPAFFAKSATIYNPVIYVFMNRQFRNCILQLFGKKVDDGSELSSASKTEVSSVSSVSPA”, the protein production entry was “failed”.

For the origin of these results see a protein production outcome set (Wang et al. 2014).
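Note: failed if final PepcDB status was selected cloned or expressed and not failed if soluble or beyond.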
